Data as given in US20130336988A1, “METHODS FOR TREATING EARLY STAGE OR MILD NEUROLOGICAL DISORDERS” (NEW YORK UNIVERSITY, priority 2010, published 2013).

T1: sortilin (Homo sapiens, UniProt Q99523)
T1 construct: expressed in transfected cells; host or cells: HEK 293 cells (proBDNF) / 293T cells (proNGF)
T1 sequence (Q99523 78-831): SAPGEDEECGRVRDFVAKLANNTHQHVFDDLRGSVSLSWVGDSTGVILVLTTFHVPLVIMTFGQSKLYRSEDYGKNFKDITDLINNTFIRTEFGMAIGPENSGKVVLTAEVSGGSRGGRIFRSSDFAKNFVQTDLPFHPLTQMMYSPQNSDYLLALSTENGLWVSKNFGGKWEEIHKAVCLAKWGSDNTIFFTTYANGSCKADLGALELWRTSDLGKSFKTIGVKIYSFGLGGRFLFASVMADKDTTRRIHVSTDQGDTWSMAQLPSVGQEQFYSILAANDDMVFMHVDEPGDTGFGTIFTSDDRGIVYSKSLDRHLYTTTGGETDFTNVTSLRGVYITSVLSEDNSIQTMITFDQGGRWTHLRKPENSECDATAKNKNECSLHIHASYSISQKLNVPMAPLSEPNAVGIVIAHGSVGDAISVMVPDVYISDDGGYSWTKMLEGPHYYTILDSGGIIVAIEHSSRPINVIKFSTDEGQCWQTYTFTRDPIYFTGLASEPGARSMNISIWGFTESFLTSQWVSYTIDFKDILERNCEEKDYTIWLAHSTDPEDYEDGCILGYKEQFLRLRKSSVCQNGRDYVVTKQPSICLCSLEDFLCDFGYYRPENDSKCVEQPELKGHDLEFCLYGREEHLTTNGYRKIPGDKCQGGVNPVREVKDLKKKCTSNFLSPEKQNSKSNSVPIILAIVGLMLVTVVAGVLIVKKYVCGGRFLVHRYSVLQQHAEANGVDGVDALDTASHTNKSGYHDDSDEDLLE


Legend:
[1] = system: Rac; assay: Rac activity assay (GST-Pak-CRIB pull-down of activated Rac); format: cell-based, mouse; conditions: mouse E15 DIV2 cortical neurons; 20 min; proBDNF with K252a
Experimental: Rac activity assays were performed as described previously (NEUBRAND, V. E. et al., Journal of Cell Science 123:2111-2123 (2010)). […] Cells were lysed in lysis buffer supplemented with 10 mM MgCl, lysates were cleared by centrifugation at 9000 g for 1 min, and cleared lysates were incubated with GST or GST-Pak-CRIB beads for 30 min at 4° C. Beads were washed and isolated active Rac was analyzed by Western blot. As a control, extra lysates were incubated with 0.1 mM GDP or 0.1 mM GTPγS for 30 min at room temperature before incubation with GST-Pak-CRIB beads. Western blots were analyzed by densitometry using ImageJ software, and isolated active Rac was normalized to the input.
GST and GST-Pak-CRIB proteins were expressed in E. coli BL21DE3 cells at 25° C. for 3 hours. Bacteria were disrupted by incubation with PBS supplemented with lysozyme on ice for 30 min and subsequent addition of 1 mM MgCl2, 0.1% TritonX-100 and 0.1 mg/ml DNAse for an additional 30 min. Bacterial lysates were cleared by centrifugation for 5 min at 3000 g and cleared lysates were incubated with glutathione sepharose. Beads were washed and the purity of the recombinant proteins was analyzed by Coomassie blue staining. 20 μg of sepharose coupled purified protein was used per reaction.

[2] = target: T2, SorCS2 (Homo sapiens, UniProt Q96PQ0); assay: Co-immunoprecipitation of proNT with SorCS2 in transfected 293 cells; format: binding; conditions: 293 cells co-transfected with proNT and myc-SorCS2; IP-Western blot
T2 construct: expressed in transfected cells; host or cells: HEK 293 cells (proBDNF) / 293T cells (proNGF)
Experimental: (§1) FIG. 2A-G. ProNTs induce growth cone collapse. (A, B) DIV3 hippocampal neurons transfected with LifeAct-RFP were imaged by time-lapse microscopy before (top panel) and starting approximately 2 min after (bottom panel) treatment with proBDNF (A) or proNGF (B). Actin dynamics stalled upon proNT treatment and subsequently the growth cone collapsed. Time is indicated in (min:sec). Scale bars, 10 μm. (C, D) DIV3 hippocampal cultures were fixed and stained for p75^NTR (C) and SorCS2 (D). Arrows highlight growth cones. Scale bars, 20 μm. (E) Brain sections from 6-week old C57/BL6 mice were stained for SorCS2. DG, dentate gyrus. Arrows highlight expression in dentate granule dendrites. Scale bar, 200 μm. (F) Both sortilin and SorCS2 interact with proBDNF. HEK 293 cells were transfected with proBDNF-HA and myc-sortilin or mycSorCS2, lysates were immunoprecipitated with anti-HA agarose and analyzed by Western blot with indicated antibodies. (G) IP-WB from 293T cells showing interactions between proNGF and sortilin and SorCS2.
(§2) The LifeAct sequence (RIEDL, J. et al., Nat Methods 5:605-607 (2008)) was cloned into the pEGFP-N1 backbone (Clontech) using the BglII and BamHI restriction sites. Trio constructs were described previously (FERRARO, F. et al., Mol Biol Cell 18:4813-4825 (2007)), human sortilin cDNA or human SorCS2 cDNA was subcloned into the pcDNA3.1 hygro expression vector (Invitrogen). […]

[3] = target: T1, sortilin; assay: Co-immunoprecipitation of proNT with sortilin in transfected 293 cells; format: binding; conditions: 293 cells co-transfected with proNT and myc-sortilin; IP-Western blot
Experimental: as §1, §2

T2 sequence (Q96PQ0 51-1159): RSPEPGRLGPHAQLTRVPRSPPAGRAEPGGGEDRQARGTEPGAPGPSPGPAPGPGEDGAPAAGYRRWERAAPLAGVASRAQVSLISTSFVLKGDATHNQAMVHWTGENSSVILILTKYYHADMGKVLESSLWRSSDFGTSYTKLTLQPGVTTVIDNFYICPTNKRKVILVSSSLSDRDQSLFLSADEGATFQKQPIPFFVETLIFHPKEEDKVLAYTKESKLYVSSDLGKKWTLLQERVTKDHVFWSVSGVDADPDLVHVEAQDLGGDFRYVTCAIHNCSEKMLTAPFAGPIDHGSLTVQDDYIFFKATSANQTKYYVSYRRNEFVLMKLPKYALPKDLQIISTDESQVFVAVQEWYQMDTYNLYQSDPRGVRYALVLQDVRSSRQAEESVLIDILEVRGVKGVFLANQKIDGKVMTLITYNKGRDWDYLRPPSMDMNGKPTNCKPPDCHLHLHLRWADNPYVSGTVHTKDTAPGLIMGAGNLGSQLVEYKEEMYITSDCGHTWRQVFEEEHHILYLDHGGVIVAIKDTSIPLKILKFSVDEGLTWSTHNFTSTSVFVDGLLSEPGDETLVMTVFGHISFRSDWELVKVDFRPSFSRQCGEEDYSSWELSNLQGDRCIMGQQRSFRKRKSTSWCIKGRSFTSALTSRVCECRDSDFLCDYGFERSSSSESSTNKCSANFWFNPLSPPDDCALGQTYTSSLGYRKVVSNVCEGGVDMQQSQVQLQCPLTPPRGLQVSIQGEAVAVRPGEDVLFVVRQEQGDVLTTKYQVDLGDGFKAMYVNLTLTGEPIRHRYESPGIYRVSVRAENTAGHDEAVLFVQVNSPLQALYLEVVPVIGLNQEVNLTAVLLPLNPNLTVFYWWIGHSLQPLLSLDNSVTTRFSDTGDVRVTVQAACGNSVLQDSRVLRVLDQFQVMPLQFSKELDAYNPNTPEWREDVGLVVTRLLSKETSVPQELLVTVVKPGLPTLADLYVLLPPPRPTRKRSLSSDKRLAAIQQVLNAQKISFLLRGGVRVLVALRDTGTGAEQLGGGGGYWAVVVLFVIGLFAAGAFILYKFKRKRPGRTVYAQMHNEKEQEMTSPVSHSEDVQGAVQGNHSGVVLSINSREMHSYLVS

Molecule | Rac activity after proNT exposure [1] | interaction with SorCS2 (co-immunoprecipitation) [2] | interaction with sortilin (co-immunoprecipitation) [3]
proNGF: proneurotrophin precursor of nerve growth factor, produced in Sf9 cells and purified | significant decrease in Rac activity | co-immunoprecipitated with both sortilin and SorCS2 | co-immunoprecipitated with both sortilin and SorCS2
proBDNF: murine proBDNF collected from supernatants of transfected 293 cells (protein) APMKEVNVHGQGNLAYPGVRTHGTLESVNGPRAGSRGLTTTSLADTFEHVIEELLDEDQKVRPNEENHKDADLYTSRVMLSSQVPLEPPLLFLLEEYKNYLDAANMSMRVRRHSDPARRGELSVCDSISEWVTAADKKTAVDMSGGTVTVLEKVPVSKGQLKQYFYETKCNPMGYTKEGCRGIDKRHWNSQCRTTQSYVRALTMDSKKRIGWRFIRIDTSCVCTLTIKRGR | significant decrease in Rac activity | interact | interact
